Five molecules from patent US20160207960A1 (FEINSTEIN INSTITUTE FOR MEDICAL RESEARCH, published 2016) can be followed below.

Sequences and labels used below:
B1: Recombinant human (rh) CIRP (Accession #NP_001271; full length) with C-terminal DDK tag (ligand)
chain: MASDEGKLFVGGLSFDTNEQSLEQVFSKYGQISEVVVVKDRETQRSRGFGFVTFENIDDAKDAMMAMNGKSVDGRQIRVDQAGKSSDNRSRGYRGGSAGGRGFFRGGRGRGRGFSRGGGDRGYGGNRFESRSGGYGGSRDYYSSRSQSGGYSDRSSGGSYRDSYDSYATHNE
notes: Bought from Origene, expressed in HEK293 cells; also called recombinant human CIRP; human CIRP; not shown: C-terminal DDK tag
B2: rhMD2 (Accession #BAA78717; Glu17-Asn160) with 10-His tag at the C-terminus (receptor, human)
chain: EAQKQYWVCNSSDASISYTYCDKMQYPISINVNPCIELKRSKGLLHIFYIPRRDLKQLYFNLYITVNTMNLPKRKEVICRGSDDDYSFCRALKGETVNTTISFSFKGIKFSKGKYKCVVEAISGSPEEMLFCLEFVILHQPNSNHHHHHHHHHH
notes: range 17-160; From R&D Systems, expressed in E. coli; also called TLR4 co-receptor MD2

The target of assay [1] is T1, rhTLR2 (Accession #NP_003255; Glu21-Leu590) with 10-His tag at the C-terminus (human, UniProt O60603 21-590).
T1 construct: range 21-590; From R&D Systems, expressed in mouse myeloma NS0 cells
The experiment in a line: SPR (BIAcore T200), analyte rhTLR2 over immobilized rhCIRP; apparent KD from kinetic analysis. As for the experimental part: (§1) Analysis of protein-protein and peptide-protein interactions were conducted using the BIAcore T200 instrument (GE Healthcare). Binding reactions were performed in 1×PBS buffer containing 0.01% Tween-20 (pH 7.4). The CM5 dextran chip (flow cell-2) was first activated by injection with 89 μl of 0.1 M […] and 0.1 M N-hydroxysuccinimide. An aliquot of 200 μl of 5 μg/ml of the ligand diluted in 10 mM sodium acetate (pH 4.5) was injected into flow cell-2 of the CM5 chip for immobilization. Next, 135 μl of 1 M ethanolamine (pH 8.2) was then injected to block the remaining active sites. The flow cell-1 without coating with the ligand was used as a control to evaluate nonspecific binding. The binding analyses were performed at flow rate of 30 μl/min at 25° C. […] The signal from the blank channel (flow cell-1) was subtracted from the channel (flow-cell 2) coated with the ligand. Data were analyzed by the BIAcore T200 Evaluation Software. For all samples, a blank injection with buffer alone was subtracted from the resulting reaction surface data. Data were globally fitted to the Lagmuir model for a 1:1 binding.
(§2) Surface plasmon resonance (SPR) analysis was utilized to determine the physical interaction and binding affinity between rhCIRP and pattern-recognition receptors and MD2.
(In general: SPR reads the build-up and loss of mass on a sensor chip optically.)

Assay [2] deals with T2, rhTLR4/MD2 complex (rhTLR4 Glu24-Lys631 co-expressed with rhMD2 Glu17-Asn160, His tag at each protein) (human, UniProt O00206 24-631; Q9Y6Y9 17-160).
T2 construct: range 24-631;range 17-160; Purified from NS0 cells co-expressing both proteins; R&D Systems; not shown: His tag; for the complex only 'His tag at each protein' is said (a general sentence gives a C-terminal 10-His tag for rh)
The experiment in a line: SPR, BIAcore T200, kinetic analysis, 1:1 Langmuir fit; target rhTLR4/MD2 complex. As for the experimental part: as §1, §2

In assay [3] the target is T3, rhRAGE (Accession #Q15109; Ala23-Ala344) with C-terminal 6-His tag (human, UniProt Q15109 23-344).
T3 construct: range 23-344; From Biovision, expressed in HEK293 cells
The experiment in a line: SPR (BIAcore T200), analyte rhRAGE over immobilized rhCIRP; apparent KD from kinetic analysis. As for the experimental part: as §1, §2

The target in assay [4] is T4, rhTLR4 (Accession #O00206; Glu24-Lys631) with 10-His tag at the C-terminus (human, UniProt O00206 24-631).
T4 construct: range 24-631; From R&D Systems, expressed in mouse myeloma NS0 cells
The experiment in a line: SPR, BIAcore T200, kinetic analysis, 1:1 Langmuir fit; target rhTLR4. As for the experimental part:
as §1, §2

The target of assay [5] is T4, rhTLR4 (Accession #O00206; …). The assay can be described thus: SPR, BIAcore T200, positive control; rhMD2 to rhTLR4, positive control. As to the method:
as §1, §2

For assay [6], the target named is B1. The experiment in a line: SPR, BIAcore T200, kinetic analysis, 1:1 Langmuir fit; target rhMD2. As to the method:
as §1, §2

Assay [7] deals with B2. The experiment in a line: SPR, 15-mer oligopeptide as analyte over immobilized rhMD2. As for the experimental part:
as §1, §2

T4 sequence (O00206 other isoform, or with tags, fused parts or gaps limits assumed): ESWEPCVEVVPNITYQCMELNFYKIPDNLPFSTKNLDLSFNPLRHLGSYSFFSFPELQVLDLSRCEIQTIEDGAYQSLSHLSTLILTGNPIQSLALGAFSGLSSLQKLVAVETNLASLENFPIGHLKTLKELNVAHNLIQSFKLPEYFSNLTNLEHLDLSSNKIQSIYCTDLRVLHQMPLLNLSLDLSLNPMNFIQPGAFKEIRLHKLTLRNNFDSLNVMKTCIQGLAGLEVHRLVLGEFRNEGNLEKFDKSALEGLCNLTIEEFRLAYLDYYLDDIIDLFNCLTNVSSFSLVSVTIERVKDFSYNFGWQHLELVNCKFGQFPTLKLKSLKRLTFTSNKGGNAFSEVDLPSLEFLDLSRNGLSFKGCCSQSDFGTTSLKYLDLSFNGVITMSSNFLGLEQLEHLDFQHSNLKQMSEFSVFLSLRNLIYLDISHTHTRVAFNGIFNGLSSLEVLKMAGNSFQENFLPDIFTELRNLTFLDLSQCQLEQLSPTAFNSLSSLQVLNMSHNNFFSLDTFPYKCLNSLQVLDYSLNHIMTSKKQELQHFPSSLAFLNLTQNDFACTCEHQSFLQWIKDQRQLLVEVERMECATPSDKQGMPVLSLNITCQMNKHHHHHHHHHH
T1 sequence (O60603 other isoform, or with tags, fused parts or gaps limits assumed): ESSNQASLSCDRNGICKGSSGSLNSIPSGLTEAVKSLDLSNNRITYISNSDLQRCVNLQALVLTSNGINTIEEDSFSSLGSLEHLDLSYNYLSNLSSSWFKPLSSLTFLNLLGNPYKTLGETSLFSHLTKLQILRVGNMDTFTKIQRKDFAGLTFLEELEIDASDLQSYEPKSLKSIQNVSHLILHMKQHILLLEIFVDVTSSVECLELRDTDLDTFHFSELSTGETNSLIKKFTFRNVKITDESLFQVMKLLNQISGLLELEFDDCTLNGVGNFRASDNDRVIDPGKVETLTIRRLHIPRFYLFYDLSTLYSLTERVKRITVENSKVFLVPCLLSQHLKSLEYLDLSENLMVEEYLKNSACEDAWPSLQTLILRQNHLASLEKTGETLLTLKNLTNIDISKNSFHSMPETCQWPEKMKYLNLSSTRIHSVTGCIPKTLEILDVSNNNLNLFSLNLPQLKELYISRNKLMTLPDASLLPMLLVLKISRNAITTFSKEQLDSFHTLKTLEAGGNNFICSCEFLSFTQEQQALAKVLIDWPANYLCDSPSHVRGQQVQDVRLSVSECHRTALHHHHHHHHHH
T3 sequence (Q15109 other isoform, or with tags, fused parts or gaps limits assumed): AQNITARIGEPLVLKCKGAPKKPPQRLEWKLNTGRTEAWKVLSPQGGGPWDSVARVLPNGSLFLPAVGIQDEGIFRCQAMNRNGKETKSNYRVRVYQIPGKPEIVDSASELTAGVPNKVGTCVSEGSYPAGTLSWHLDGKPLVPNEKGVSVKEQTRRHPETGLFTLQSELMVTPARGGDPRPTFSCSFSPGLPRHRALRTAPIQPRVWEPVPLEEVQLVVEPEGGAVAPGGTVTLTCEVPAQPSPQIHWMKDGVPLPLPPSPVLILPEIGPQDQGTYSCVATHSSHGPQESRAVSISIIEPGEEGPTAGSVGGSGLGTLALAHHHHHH
T2 sequence (O00206 24-631 limits assumed, form in doubt, one chain of several): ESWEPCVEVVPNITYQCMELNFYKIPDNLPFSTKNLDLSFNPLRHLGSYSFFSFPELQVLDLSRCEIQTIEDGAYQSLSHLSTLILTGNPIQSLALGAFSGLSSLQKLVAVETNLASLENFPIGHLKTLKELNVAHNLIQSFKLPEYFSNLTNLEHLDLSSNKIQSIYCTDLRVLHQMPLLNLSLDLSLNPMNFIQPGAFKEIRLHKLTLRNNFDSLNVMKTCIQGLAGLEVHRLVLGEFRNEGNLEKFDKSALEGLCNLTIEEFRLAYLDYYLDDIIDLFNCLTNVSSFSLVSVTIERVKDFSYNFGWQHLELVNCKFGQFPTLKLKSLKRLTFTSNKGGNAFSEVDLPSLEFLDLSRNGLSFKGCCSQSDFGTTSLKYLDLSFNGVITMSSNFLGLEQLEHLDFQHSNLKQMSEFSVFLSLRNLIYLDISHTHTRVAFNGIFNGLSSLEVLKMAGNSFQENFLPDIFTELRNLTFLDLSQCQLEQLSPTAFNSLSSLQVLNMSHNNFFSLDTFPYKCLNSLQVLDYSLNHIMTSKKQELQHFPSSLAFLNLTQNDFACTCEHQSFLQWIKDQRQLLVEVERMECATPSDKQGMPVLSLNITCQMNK

B1: the Kd in assay [1] is 258 nM; in assay [2] it was 239 nM; in assay [3], 33.1 nM; in assay [4], 617 nM.
Regarding B2, the Kd in assay [5] was 53.7 nM; in assay [6], 302 nM.
Take GGRGRGRGFSRGGGD (Synthetic, Genscript) [CIRP-derived oligopeptide C22 (human CIRP aa 106-120)]: the Kd in assay [7] was 129 nM.
Still for that read-out and setting: in the case of GRGFSRGGGDRGYGG [CIRP-derived oligopeptide C23 (human CIRP aa 111-125)] it was 29.7 nM; in that of RGFFRGGRGRGRGFS [human CIRP 15-mer oligopeptide aa 101-115], 1510 nM.
